To fix the notation:
B1: glmS ribozyme (parent)
chain: AUAAAAGCGCCAGAACUACAGAAAUGUAGUUGACGAGGAGGAGGUUUAUCGAAUUUUCGGCGGAUGCCUCCAAA

± gives the standard error. Fewer inactive variants are shown than the library holds.

Holding throughout (details): with glucosamine-6-phosphate
In data set [1] the parent is B1. The experiment in a line: self-cleavage kobs at 40 uM GlcN6P; higher = faster cleavage; RNA array. The procedure, abridged:
(§1)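 Over ~14 h at 37 °C, tiles were imaged as glucosamine-6-phosphate (40 μM to 10 mM) in HEPES/KCl/Mg(OAc)2 buffer flowed across sequenced MiSeq chips. The chips carried barcoded ribozyme variants transcribed in situ by E. coli RNA polymerase and tracked with a hybridised Cy3 probe. After normalisation to baseline and to non-cleaving reference variants, one- or two-exponential decay fits of per-tile medians gave kobs. kcat and KM followed from weighted Michaelis–Menten fits across concentrations.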

In data set [2] the parent is B1. Put plainly: self-cleavage kobs at 160 uM GlcN6P; higher = faster cleavage; RNA array. The procedure, abridged:
as §1

In data set [3] the parent is B1. The experiment in a line: self-cleavage kobs at 640 uM GlcN6P; higher = faster cleavage; RNA array. The method in brief:
as §1

The variants in data set [4] derive from B1. Put plainly: self-cleavage kobs at 2500 uM GlcN6P; higher = faster cleavage; RNA array. The procedure, abridged:
as §1

Data set [5] covers variants of B1. The experiment in a line: self-cleavage kobs at 10000 uM GlcN6P; higher = faster cleavage; RNA array. The method in brief:
as §1

Regarding C16U A53U, in the data set with glucosamine-6-phosphate [1], the “self-cleavage kobs at 40 uM GlcN6P” value is 0.00056 ± 5.9e-05 s⁻¹. The “self-cleavage kobs at 160 uM GlcN6P” value with glucosamine-6-phosphate [2] came out at 0.000815 ± 0.00015 s⁻¹. Further, in the data set with glucosamine-6-phosphate [3], the “self-cleavage kobs at 640 uM GlcN6P” value was 0.00552 ± 0.00076 s⁻¹. Besides, the “self-cleavage kobs at 2500 uM GlcN6P” value with glucosamine-6-phosphate [4] amounted to 0.00594 ± 0.0012 s⁻¹. Moreover, the “self-cleavage kobs at 10000 uM GlcN6P” value in the data set with glucosamine-6-phosphate [5] turned out to be 0.0301 ± 0.0055 s⁻¹.

As to C10A C11U, the “self-cleavage kobs at 40 uM GlcN6P” value with glucosamine-6-phosphate [1] is below 1e-05 s⁻¹. Besides, the “self-cleavage kobs at 160 uM GlcN6P” value in the data set with glucosamine-6-phosphate [2] is below 1e-05 s⁻¹. Moreover, the “self-cleavage kobs at 2500 uM GlcN6P” value in the data set with glucosamine-6-phosphate [4] was below 1e-05 s⁻¹. Further, the “self-cleavage kobs at 10000 uM GlcN6P” value with glucosamine-6-phosphate [5] is below 1e-05 s⁻¹.

Consider A33G A52U, for which the “self-cleavage kobs at 40 uM GlcN6P” value with glucosamine-6-phosphate [1] is below 1e-05 s⁻¹. In addition, in the data set with glucosamine-6-phosphate [3], the “self-cleavage kobs at 640 uM GlcN6P” value was below 1e-05 s⁻¹. Further, in the data set with glucosamine-6-phosphate [5], the “self-cleavage kobs at 10000 uM GlcN6P” value is below 1e-05 s⁻¹.

As to A36G C58A, the “self-cleavage kobs at 40 uM GlcN6P” value in the data set with glucosamine-6-phosphate [1] was below 1e-05 s⁻¹. Also, in the data set with glucosamine-6-phosphate [4], the “self-cleavage kobs at 2500 uM GlcN6P” value is below 1e-05 s⁻¹. The “self-cleavage kobs at 10000 uM GlcN6P” value with glucosamine-6-phosphate [5] was below 1e-05 s⁻¹.

Regarding G7C G59A, the “self-cleavage kobs at 40 uM GlcN6P” value with glucosamine-6-phosphate [1] is below 1e-05 s⁻¹. Also, in the data set with glucosamine-6-phosphate [2], the “self-cleavage kobs at 160 uM GlcN6P” value is below 1e-05 s⁻¹. Besides, the “self-cleavage kobs at 640 uM GlcN6P” value with glucosamine-6-phosphate [3] is below 1e-05 s⁻¹. In the data set with glucosamine-6-phosphate [5], the “self-cleavage kobs at 10000 uM GlcN6P” value was below 1e-05 s⁻¹.

A6U A12C U56A G62A: the “self-cleavage kobs at 40 uM GlcN6P” value with glucosamine-6-phosphate [1] is below 1e-05 s⁻¹.

With G13A C67A C71A, the “self-cleavage kobs at 40 uM GlcN6P” value with glucosamine-6-phosphate [1] was below 1e-05 s⁻¹.

With G7A A15G G51U C58G A64U C70A, in the data set with glucosamine-6-phosphate [1], the “self-cleavage kobs at 40 uM GlcN6P” value was 0.000522 ± 0.00019 s⁻¹. In the data set with glucosamine-6-phosphate [5], the “self-cleavage kobs at 10000 uM GlcN6P” value was determined as 0.000462 ± 0.00017 s⁻¹.

Take C16U U55A C67A: the “self-cleavage kobs at 40 uM GlcN6P” value in the data set with glucosamine-6-phosphate [1] was 0.000154 ± 5.7e-05 s⁻¹. Besides, in the data set with glucosamine-6-phosphate [5], the “self-cleavage kobs at 10000 uM GlcN6P” value came to 0.00183 ± 0.00074 s⁻¹.

For the variant A33G U45A C71A, the “self-cleavage kobs at 40 uM GlcN6P” value with glucosamine-6-phosphate [1] is below 1e-05 s⁻¹. For the same variant, the “self-cleavage kobs at 10000 uM GlcN6P” value with glucosamine-6-phosphate [5] was below 1e-05 s⁻¹.

On to C16A G29C U56G A64G, for which the “self-cleavage kobs at 40 uM GlcN6P” value with glucosamine-6-phosphate [1] came to 2.81e-05 ± 1.4e-05 s⁻¹. In the data set with glucosamine-6-phosphate [5], the “self-cleavage kobs at 10000 uM GlcN6P” value was found to be 0.00203 ± 0.00038 s⁻¹.

For the variant C10G G41U, in the data set with glucosamine-6-phosphate [1], the “self-cleavage kobs at 40 uM GlcN6P” value was below 1e-05 s⁻¹. Further, the “self-cleavage kobs at 160 uM GlcN6P” value in the data set with glucosamine-6-phosphate [2] was below 1e-05 s⁻¹. In addition, the “self-cleavage kobs at 640 uM GlcN6P” value with glucosamine-6-phosphate [3] was below 1e-05 s⁻¹. The “self-cleavage kobs at 2500 uM GlcN6P” value in the data set with glucosamine-6-phosphate [4] was below 1e-05 s⁻¹. Besides, the “self-cleavage kobs at 10000 uM GlcN6P” value with glucosamine-6-phosphate [5] was below 1e-05 s⁻¹.

Turning to C16A C50G, in the data set with glucosamine-6-phosphate [1], the “self-cleavage kobs at 40 uM GlcN6P” value was determined as 0.000251 ± 0.0001 s⁻¹. For the same variant, the “self-cleavage kobs at 160 uM GlcN6P” value in the data set with glucosamine-6-phosphate [2] was 7.18e-05 ± 1.9e-05 s⁻¹. Moreover, the “self-cleavage kobs at 640 uM GlcN6P” value in the data set with glucosamine-6-phosphate [3] is 4.7e-05 ± 1.7e-05 s⁻¹. In addition, the “self-cleavage kobs at 2500 uM GlcN6P” value with glucosamine-6-phosphate [4] was 5.49e-05 ± 1.1e-05 s⁻¹. Moreover, the “self-cleavage kobs at 10000 uM GlcN6P” value with glucosamine-6-phosphate [5] amounted to 7.6e-05 ± 3.6e-05 s⁻¹.

Turning to U31C G35A G37U, the “self-cleavage kobs at 40 uM GlcN6P” value with glucosamine-6-phosphate [1] is below 1e-05 s⁻¹.

For the variant U49C G63C, the “self-cleavage kobs at 40 uM GlcN6P” value with glucosamine-6-phosphate [1] was below 1e-05 s⁻¹. Besides, the “self-cleavage kobs at 640 uM GlcN6P” value with glucosamine-6-phosphate [3] is below 1e-05 s⁻¹.

In the case of G35U A48C G60C, the “self-cleavage kobs at 40 uM GlcN6P” value with glucosamine-6-phosphate [1] was below 1e-05 s⁻¹. In addition, the “self-cleavage kobs at 2500 uM GlcN6P” value in the data set with glucosamine-6-phosphate [4] was below 1e-05 s⁻¹. Further, the “self-cleavage kobs at 10000 uM GlcN6P” value with glucosamine-6-phosphate [5] was below 1e-05 s⁻¹.

In the case of G32U A48U, the “self-cleavage kobs at 40 uM GlcN6P” value with glucosamine-6-phosphate [1] was below 1e-05 s⁻¹. The “self-cleavage kobs at 160 uM GlcN6P” value with glucosamine-6-phosphate [2] was below 1e-05 s⁻¹. For the same variant, in the data set with glucosamine-6-phosphate [3], the “self-cleavage kobs at 640 uM GlcN6P” value is below 1e-05 s⁻¹.

C8G G13U G21A U30A: the “self-cleavage kobs at 40 uM GlcN6P” value with glucosamine-6-phosphate [1] was below 1e-05 s⁻¹. Also, in the data set with glucosamine-6-phosphate [5], the “self-cleavage kobs at 10000 uM GlcN6P” value was below 1e-05 s⁻¹.

Turning to G21U U30C U57C G66C C67U, in the data set with glucosamine-6-phosphate [1], the “self-cleavage kobs at 40 uM GlcN6P” value is below 1e-05 s⁻¹.

U31G G38C: the “self-cleavage kobs at 40 uM GlcN6P” value in the data set with glucosamine-6-phosphate [1] is below 1e-05 s⁻¹. In addition, in the data set with glucosamine-6-phosphate [2], the “self-cleavage kobs at 160 uM GlcN6P” value was below 1e-05 s⁻¹. For the same variant, the “self-cleavage kobs at 640 uM GlcN6P” value with glucosamine-6-phosphate [3] is below 1e-05 s⁻¹. Further, the “self-cleavage kobs at 2500 uM GlcN6P” value with glucosamine-6-phosphate [4] was below 1e-05 s⁻¹.

With A6C G32C U47A, the “self-cleavage kobs at 40 uM GlcN6P” value with glucosamine-6-phosphate [1] was below 1e-05 s⁻¹. The “self-cleavage kobs at 640 uM GlcN6P” value in the data set with glucosamine-6-phosphate [3] was below 1e-05 s⁻¹. Further, the “self-cleavage kobs at 2500 uM GlcN6P” value with glucosamine-6-phosphate [4] is below 1e-05 s⁻¹.

Turning to C16U G44U U57A C68A, the “self-cleavage kobs at 40 uM GlcN6P” value with glucosamine-6-phosphate [1] is below 1e-05 s⁻¹. Also, the “self-cleavage kobs at 160 uM GlcN6P” value with glucosamine-6-phosphate [2] is below 1e-05 s⁻¹. Further, in the data set with glucosamine-6-phosphate [3], the “self-cleavage kobs at 640 uM GlcN6P” value is below 1e-05 s⁻¹. Moreover, the “self-cleavage kobs at 2500 uM GlcN6P” value with glucosamine-6-phosphate [4] is below 1e-05 s⁻¹. The “self-cleavage kobs at 10000 uM GlcN6P” value with glucosamine-6-phosphate [5] is below 1e-05 s⁻¹.

For G9C C10A A52C C61U, the “self-cleavage kobs at 40 uM GlcN6P” value with glucosamine-6-phosphate [1] was below 1e-05 s⁻¹. Also, the “self-cleavage kobs at 10000 uM GlcN6P” value with glucosamine-6-phosphate [5] was below 1e-05 s⁻¹.

Take A33U G41A: in the data set with glucosamine-6-phosphate [1], the “self-cleavage kobs at 40 uM GlcN6P” value was below 1e-05 s⁻¹. For the same variant, in the data set with glucosamine-6-phosphate [3], the “self-cleavage kobs at 640 uM GlcN6P” value is below 1e-05 s⁻¹. In addition, the “self-cleavage kobs at 10000 uM GlcN6P” value with glucosamine-6-phosphate [5] came out at 4.33e-05 ± 9.1e-06 s⁻¹.

The record behind these values is the supplement of paper PMC7125110.
